Reference: the supplement of paper PMC10065799, “High-throughput profiling of sequence recognition by tyrosine kinases and SH2 domains using bacterial peptide display” (eLife, 2023)

Tests used:
Grb2 SH2 = Grb2 SH2 (UniProt P62993); test: SH2 binding enrichment of the phosphorylated peptide, bacterial display (enrichment ratio); higher = better substrate or ligand; peptides without Tyr show the background
c-Src SH2 = test: as above
SHP2-C SH2 = test: as above
AncSZ = test: phosphorylation enrichment, bacterial display (enrichment ratio); higher = better substrate or ligand; peptides without Tyr show the background
FGFR3 = FGFR3 (UniProt P22607); test: as above
Sequence of FGFR3 (P22607 whole entry, looked up): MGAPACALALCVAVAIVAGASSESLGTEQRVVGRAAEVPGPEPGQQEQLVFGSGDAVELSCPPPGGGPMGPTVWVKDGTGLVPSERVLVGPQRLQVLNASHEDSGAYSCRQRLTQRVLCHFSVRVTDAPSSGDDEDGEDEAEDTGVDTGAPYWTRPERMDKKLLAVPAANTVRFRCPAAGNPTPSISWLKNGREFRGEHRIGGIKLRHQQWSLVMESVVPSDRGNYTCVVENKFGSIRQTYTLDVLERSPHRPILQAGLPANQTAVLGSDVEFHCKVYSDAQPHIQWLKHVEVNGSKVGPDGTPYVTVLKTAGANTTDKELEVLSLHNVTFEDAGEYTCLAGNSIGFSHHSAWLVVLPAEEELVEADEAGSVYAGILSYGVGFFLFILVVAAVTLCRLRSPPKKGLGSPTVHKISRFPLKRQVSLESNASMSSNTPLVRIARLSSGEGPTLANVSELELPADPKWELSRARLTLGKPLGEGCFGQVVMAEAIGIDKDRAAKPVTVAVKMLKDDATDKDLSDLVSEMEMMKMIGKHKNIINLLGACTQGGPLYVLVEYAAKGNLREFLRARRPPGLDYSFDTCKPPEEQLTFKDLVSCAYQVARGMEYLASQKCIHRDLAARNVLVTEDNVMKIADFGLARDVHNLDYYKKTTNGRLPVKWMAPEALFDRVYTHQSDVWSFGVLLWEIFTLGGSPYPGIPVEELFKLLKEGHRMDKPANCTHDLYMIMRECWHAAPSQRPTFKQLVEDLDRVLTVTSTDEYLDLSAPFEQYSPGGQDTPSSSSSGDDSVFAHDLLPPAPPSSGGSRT

Hck = Hck (UniProt P08631); test: as above
Sequence of Hck (P08631 whole entry, looked up): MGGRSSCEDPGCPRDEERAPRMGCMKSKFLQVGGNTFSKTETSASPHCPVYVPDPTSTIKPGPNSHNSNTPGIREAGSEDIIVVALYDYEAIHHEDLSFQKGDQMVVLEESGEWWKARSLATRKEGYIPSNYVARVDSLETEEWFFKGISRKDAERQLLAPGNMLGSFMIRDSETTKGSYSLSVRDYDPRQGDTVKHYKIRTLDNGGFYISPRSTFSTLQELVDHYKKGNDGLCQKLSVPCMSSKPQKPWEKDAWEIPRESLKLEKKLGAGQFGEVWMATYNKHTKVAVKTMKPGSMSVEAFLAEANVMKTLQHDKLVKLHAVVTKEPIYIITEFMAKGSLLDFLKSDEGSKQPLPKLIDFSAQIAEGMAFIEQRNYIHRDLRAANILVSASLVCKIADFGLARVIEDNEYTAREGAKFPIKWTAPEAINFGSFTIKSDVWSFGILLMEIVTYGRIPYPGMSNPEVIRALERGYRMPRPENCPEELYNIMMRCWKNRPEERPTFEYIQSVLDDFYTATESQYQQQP

Fer (mouse) = test: as above
Fes = Fes (UniProt P07332); test: as above
Sequence of Fes (P07332 whole entry, looked up): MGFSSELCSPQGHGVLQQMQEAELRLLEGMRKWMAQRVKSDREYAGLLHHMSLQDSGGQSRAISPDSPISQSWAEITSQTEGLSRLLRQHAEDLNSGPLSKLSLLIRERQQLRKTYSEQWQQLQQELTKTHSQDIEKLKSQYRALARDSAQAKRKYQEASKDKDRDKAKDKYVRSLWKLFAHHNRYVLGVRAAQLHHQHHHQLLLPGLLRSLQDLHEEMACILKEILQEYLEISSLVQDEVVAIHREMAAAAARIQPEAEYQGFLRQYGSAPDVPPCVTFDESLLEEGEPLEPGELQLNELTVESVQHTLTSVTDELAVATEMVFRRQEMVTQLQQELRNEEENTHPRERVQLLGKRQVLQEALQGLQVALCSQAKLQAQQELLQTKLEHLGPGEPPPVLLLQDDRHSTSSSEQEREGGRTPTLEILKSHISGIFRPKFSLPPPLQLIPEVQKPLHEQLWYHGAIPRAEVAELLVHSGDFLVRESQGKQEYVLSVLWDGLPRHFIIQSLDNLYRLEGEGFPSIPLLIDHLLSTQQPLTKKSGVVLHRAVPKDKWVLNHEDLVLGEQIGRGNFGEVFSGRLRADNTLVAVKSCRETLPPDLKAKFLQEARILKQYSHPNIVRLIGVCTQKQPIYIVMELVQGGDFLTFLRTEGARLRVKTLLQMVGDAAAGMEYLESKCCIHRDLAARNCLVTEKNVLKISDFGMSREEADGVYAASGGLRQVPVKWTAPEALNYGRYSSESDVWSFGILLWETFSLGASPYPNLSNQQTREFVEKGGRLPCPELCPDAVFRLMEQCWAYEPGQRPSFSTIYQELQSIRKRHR

Fyn = Fyn (UniProt P06241); test: as above
Jak2 = Jak2 (UniProt O60674); test: as above
FGFR1 = FGFR1 (UniProt P11362); test: as above
Sequence of FGFR1 (P11362 whole entry, looked up): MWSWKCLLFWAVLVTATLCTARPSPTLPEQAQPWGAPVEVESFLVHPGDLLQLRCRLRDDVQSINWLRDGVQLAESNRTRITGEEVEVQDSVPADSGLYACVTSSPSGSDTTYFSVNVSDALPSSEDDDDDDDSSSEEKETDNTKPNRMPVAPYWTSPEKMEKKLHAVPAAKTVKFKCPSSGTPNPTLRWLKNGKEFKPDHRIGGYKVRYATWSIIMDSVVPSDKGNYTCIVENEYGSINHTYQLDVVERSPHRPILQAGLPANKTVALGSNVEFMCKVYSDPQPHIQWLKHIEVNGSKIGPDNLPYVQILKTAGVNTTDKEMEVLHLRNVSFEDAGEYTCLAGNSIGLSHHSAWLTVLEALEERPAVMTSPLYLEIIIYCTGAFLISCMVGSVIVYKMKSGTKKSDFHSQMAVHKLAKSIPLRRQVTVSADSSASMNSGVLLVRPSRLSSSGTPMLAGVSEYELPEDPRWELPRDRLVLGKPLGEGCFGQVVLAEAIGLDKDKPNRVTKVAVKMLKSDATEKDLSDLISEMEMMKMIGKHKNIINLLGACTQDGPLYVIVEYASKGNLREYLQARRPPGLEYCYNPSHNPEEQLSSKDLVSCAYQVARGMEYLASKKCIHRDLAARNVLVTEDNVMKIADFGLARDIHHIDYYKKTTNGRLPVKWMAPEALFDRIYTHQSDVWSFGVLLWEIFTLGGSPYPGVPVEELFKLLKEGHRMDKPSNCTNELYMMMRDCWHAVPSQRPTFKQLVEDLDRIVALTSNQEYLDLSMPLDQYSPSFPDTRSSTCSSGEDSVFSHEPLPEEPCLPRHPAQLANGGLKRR

c-Src = test: as above
MERTK = MERTK (UniProt Q12866); test: as above
Sequence of MERTK (Q12866 whole entry, looked up): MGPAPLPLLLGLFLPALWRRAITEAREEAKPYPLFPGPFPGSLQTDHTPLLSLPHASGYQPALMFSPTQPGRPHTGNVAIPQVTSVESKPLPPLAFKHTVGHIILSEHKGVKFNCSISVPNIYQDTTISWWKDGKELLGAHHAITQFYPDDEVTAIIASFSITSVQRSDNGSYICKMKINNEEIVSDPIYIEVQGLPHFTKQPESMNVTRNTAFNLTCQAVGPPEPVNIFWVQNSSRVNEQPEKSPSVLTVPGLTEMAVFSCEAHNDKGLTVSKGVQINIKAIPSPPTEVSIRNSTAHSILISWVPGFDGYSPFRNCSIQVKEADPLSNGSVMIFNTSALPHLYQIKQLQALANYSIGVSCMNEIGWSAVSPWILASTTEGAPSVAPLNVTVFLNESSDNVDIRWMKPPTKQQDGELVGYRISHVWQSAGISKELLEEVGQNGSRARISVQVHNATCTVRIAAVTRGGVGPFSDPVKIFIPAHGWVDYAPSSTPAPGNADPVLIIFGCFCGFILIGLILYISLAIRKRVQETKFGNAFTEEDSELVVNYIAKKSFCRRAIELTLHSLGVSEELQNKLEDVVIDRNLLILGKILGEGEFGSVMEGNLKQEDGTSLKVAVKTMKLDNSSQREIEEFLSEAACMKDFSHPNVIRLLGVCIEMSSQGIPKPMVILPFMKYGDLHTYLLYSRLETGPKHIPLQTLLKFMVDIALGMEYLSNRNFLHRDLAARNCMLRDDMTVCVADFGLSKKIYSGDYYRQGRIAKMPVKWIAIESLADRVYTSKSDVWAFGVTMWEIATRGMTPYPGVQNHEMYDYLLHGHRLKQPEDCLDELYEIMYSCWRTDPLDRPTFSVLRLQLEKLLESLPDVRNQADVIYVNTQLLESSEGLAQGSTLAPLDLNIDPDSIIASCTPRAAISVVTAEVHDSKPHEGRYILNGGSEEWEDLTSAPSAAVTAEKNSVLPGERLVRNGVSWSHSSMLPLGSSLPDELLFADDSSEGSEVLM

EPHB2 = EPHB2 (UniProt P29323); test: as above
c-Abl (mouse) = test: as above
EPHB1 = EPHB1 (UniProt P54762); test: as above
Sequence of EPHB1 (P54762 whole entry, looked up, the tested form may be a part): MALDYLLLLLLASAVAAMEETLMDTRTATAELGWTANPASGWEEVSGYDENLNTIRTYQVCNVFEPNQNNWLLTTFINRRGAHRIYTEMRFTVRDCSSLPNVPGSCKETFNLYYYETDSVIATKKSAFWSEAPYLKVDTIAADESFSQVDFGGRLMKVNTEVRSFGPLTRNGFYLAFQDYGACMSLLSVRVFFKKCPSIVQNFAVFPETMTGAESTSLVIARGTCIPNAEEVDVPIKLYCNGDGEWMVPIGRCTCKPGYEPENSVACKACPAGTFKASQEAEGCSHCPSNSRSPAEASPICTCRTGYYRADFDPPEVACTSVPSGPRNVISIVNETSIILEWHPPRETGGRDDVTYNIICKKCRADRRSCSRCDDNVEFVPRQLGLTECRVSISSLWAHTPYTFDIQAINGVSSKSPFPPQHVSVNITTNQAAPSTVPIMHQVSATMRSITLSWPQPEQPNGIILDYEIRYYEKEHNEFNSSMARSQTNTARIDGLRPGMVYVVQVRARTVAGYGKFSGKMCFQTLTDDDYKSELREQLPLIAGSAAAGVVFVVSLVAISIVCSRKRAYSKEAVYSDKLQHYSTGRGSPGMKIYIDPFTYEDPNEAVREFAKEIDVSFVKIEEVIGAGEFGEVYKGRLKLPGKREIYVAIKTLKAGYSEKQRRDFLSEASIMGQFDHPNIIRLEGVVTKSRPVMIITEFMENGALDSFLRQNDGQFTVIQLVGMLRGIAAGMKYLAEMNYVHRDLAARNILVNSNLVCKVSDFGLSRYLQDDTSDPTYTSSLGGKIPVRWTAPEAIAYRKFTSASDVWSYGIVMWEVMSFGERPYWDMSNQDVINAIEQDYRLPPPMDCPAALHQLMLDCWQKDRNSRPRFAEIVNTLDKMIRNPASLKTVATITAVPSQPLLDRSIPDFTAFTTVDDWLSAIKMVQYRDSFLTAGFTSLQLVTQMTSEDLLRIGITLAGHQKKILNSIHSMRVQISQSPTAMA
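For SH2 binding enrichment of the phosphorylated peptide, bacterial display in this document: peptide library displayed on the E. coli surface as eCPX fusions, selected cells deep-sequenced, score is each peptide's frequency after selection divided by its frequency in the input.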
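For phosphorylation enrichment, bacterial display in this document: 11-residue human phosphosite peptides and single-mutation variants displayed on the E. coli surface, counted by deep sequencing, each peptide's frequency after selection divided by its frequency in the unselected input library; frequency after pTyr selection over input frequency; kinase dosed for 20-30% of maximal phosphorylation in three min.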

Row | SH2 binding enrichment (Grb2 SH2) | SH2 binding enrichment (c-Src SH2) | SH2 binding enrichment (SHP2-C SH2) | Sequence | phosphorylation enrichment (AncSZ) | phosphorylation enrichment (FGFR3) | phosphorylation enrichment (Hck) | phosphorylation enrichment (Fer (mouse)) | phosphorylation enrichment (Fes) | phosphorylation enrichment (Fyn) | phosphorylation enrichment (Jak2) | phosphorylation enrichment (FGFR1) | phosphorylation enrichment (c-Src) | phosphorylation enrichment (MERTK) | phosphorylation enrichment (EPHB2) | phosphorylation enrichment (c-Abl (mouse)) | phosphorylation enrichment (EPHB1)
1 | 0.758 | 0.726 | 3.33 | MPAVTYTLAMR [MEGF10_Y895_P897L] | 1.08 | 0.73 | 0.514 | 0.488 | 1.03 | 0.53 | 0.845 | 0.453 | 0.503 | 0.437 | 0.588 | 0.724 | 0.516
2 | 1.03 | 0.608 | 0.78 | MSRLKYPVSQQ [BTK_Y375_I370M] | 0.573 | 0.621 | 0.435 | 0.375 | 0.706 | 0.473 | 0.54 | 0.434 | 0.491 | 0.478 | 0.741 | 0.573 | 0.413
3 | 0.753 | 0.79 | 0.605 | MSYDRYMAICH [OR2A5_Y123] | 0.909 | 0.672 | 0.646 | 0.498 | 1.03 | 0.511 | 0.895 | 0.509 | 0.485 | 0.484 | 0.704 | 0.695 | 0.846
4 | 1.13 | 0.51 | 0.792 | MTFQNYRQALF [FAM20C_Y279_G280R] | 0.909 | 0.57 | 0.469 | 0.451 | 1.02 | 0.576 | 0.867 | 0.444 | 0.462 | 0.494 | 0.572 | 0.657 | 0.477
5 | 0.811 | 0.529 | 0.563 | MTRDIYRASFF [ALK_Y1278_A1274T_YF] | 0.657 | 0.677 | 0.89 | 0.386 | 0.73 | 0.587 | 0.621 | 0.572 | 0.592 | 0.464 | 0.462 | 4.15 | 0.519
6 | 0.873 | 0.622 | 0.566 | MYDKEYYSVHN [MET_Y1234] | 2.1 | 4.25 | 0.903 | 0.727 | 1.1 | 0.64 | 2.53 | 7.14 | 1.65 | 0.813 | 1.13 | 1.05 | 0.965
7 | 1.04 | 4.65 | 0.745 | NALVQYQEMEK [BBS4_Y395_A393V] | 0.978 | 0.721 | 0.569 | 0.509 | 1.02 | 0.53 | 1.02 | 0.562 | 0.507 | 0.459 | 0.503 | 0.62 | 0.507
8 | 0.887 | 0.538 | 0.571 | NDLMEYPKQHG [ASS1_Y163_A164P] | 0.738 | 0.48 | 0.502 | 0.377 | 0.855 | 0.503 | 0.765 | 0.506 | 0.447 | 0.45 | 0.48 | 0.697 | 0.46
9 | 0.765 | 0.527 | 0.893 | NDQANYLLNTD [ADA_Y290_S291L] | 0.987 | 0.601 | 0.469 | 0.379 | 0.968 | 0.491 | 0.934 | 0.432 | 0.468 | 0.395 | 0.56 | 0.681 | 0.558
10 | 0.78 | 0.438 | 0.766 | NELTYYCCKKD [CD59_Y87] | 1.9 | 3.92 | 3.04 | 3.67 | 1.3 | 2.92 | 2.83 | 7.15 | 3.91 | 4.45 | 1.17 | 1.48 | 0.923
11 | 0.748 | 0.433 | 0.693 | NESVDYRATFP [MET_Y1003] | 0.681 | 0.489 | 0.484 | 0.454 | 0.802 | 0.472 | 0.749 | 0.427 | 0.418 | 0.422 | 0.463 | 0.591 | 0.421
12 | 0.954 | 0.885 | 0.953 | NFATLHLKIYH [PDE6B_Y219_Y219H] | 1.16 | 0.755 | 0.47 | 0.498 | 1.41 | 0.476 | 1.12 | 0.423 | 0.568 | 0.46 | 0.536 | 1.01 | 0.675
13 | 1.59 | 1.21 | 1.66 | NFDRVYIFHLR [MYOF_Y1137_YF] | 1.19 | 0.897 | 0.473 | 0.523 | 1.19 | 0.414 | 1.18 | 0.535 | 0.615 | 0.46 | 0.559 | 0.91 | 0.545
14 | 0.984 | 0.856 | 0.726 | NFYEYYVDDPL [GCHFR_Y48_P53L] | 2.81 | 5.52 | 2.29 | 6.36 | 1.74 | 4.96 | 1.64 | 7.28 | 4.67 | 7.76 | 7.76 | 1.04 | 6.99
15 | 1.05 | 1.65 | 20.4 | NGSKAYAFVHF [PABPC5_Y147_G146A_YF] | 0.97 | 0.763 | 0.531 | 0.769 | 1.02 | 0.442 | 0.796 | 0.649 | 0.372 | 0.71 | 0.606 | 0.618 | 0.586

Row | Sequence | SH2 binding enrichment (Grb2 SH2) | SH2 binding enrichment (c-Src SH2) | SH2 binding enrichment (SHP2-C SH2) | phosphorylation enrichment (AncSZ) | phosphorylation enrichment (FGFR3) | phosphorylation enrichment (Hck) | phosphorylation enrichment (Fer (mouse)) | phosphorylation enrichment (Fes) | phosphorylation enrichment (Fyn) | phosphorylation enrichment (Jak2) | phosphorylation enrichment (FGFR1) | phosphorylation enrichment (c-Src) | phosphorylation enrichment (MERTK) | phosphorylation enrichment (EPHB2) | phosphorylation enrichment (c-Abl (mouse)) | phosphorylation enrichment (EPHB1)
16 | MSRNLYSGDYY [DDR2_Y736] | 0.878 | 0.845 | 0.612 | 2.08 | 5.43 | 5.53 | 2.13 | 0.788 | 5.12 | 1.64 | 7.13 | 5.09 | 9.32 | 14.6 | 0.821 | 11.3
